Data taken from patent US20190142971A1, “FORMULATION AND DELIVERY OF MODIFIED NUCLEOSIDE, NUCLEOTIDE, AND NUCLEIC ACID COMPOSITIONS” (ModernaTX, Inc., priority 2013, published 2019).
Where two headings read alike, the source gives them in different places.

Legend:
Balb-C mice [1] = assay: Example 79: fibrin sealant (Tisseel) with luciferase mRNA SC in mice, total flux (Tables 119, 120); assay type: in vivo; details: subcutaneous
Protocol: The thrombin and fibrinogen components were loaded separately into a dual barreled syringe. […] The injection of fibrinogen and thrombin was done simultaneously using the dual-barreled syringe. The subcutaneous injection of luciferase was done 15 minutes after the fibrinogen/thrombin injection to allow the fibrin hydrogel to polymerize (Tisseel+Luciferase group). A control group of untreated mice were also evaluated. The mice were imaged at 5 hours and 24 hours. Twenty minutes prior to imaging, mice were injected intraperitoneally with a D-luciferin solution at 150 mg/kg. Animals were then anesthetized and images were acquired with an IVIS Lumina II imaging system (Perkin Elmer). Bioluminescence was measured as total flux (photons/second) of the entire mouse.

[2] = system: peripheral blood mononuclear cells (PBMC); assay: Example 46A: percent modification, PBMC G-CSF ELISA (Table 73); assay type: cell-based, human
Protocol: 960 ng of G-CSF mRNA modified with 5-methylcytosine (5mC) and pseudouridine (pseudoU) or unmodified G-CSF mRNA was transfected with 0.8 uL of Lipofectamine 2000 into peripheral blood mononuclear cells (PBMC) from three normal blood donors (D1, D2, D3). […] The supernatant was harvested and run by ELISA 22 hours after transfection to determine the protein expression. The expression of IFN-alpha and TNF-alpha may be a secondary effect from the transfection of the G-CSF mRNA.

Balb-C mice [3] = assay: Example 108: luciferase mRNA IM with electroporation, total flux (Tables 174-176); assay type: in vivo; details: PBS, IM 2.5 mg/kg
Protocol: The mice of Group 2 were treated with electroporation (EP) using the […]™ instrument (Harvard Apparatus/BTX®, Holliston, Mass.) immediately after administration of luciferase.
[…] Twenty minutes prior to imaging, the mice were injected intraperitoneally with a D-luciferin solution at 150 mg/kg. Animals were then anesthetized and images were acquired with an IVIS Lumina II imaging system (Perkin Elmer). Bioluminescence was measured as total flux (photons/second) of the entire mouse.

[4] = system: peripheral blood mononuclear cells (PBMC); assay type: cell-based, human; details: three human PBMC donors
Protocol: 500 ng of G-CSF mRNA modified with 5-methylcytosine (5mC) and pseudouridine (pseudoU) or unmodified G-CSF mRNA was transfected with 0.4 uL of Lipofectamine 2000 into peripheral blood mononuclear cells (PBMC) from three normal blood donors (D1, D2, and D3). […] The supernatant was harvested 6 hours and 18 hours after transfection and run by ELISA to determine the protein expression. The expression of G-CSF, IFN-alpha, and TNF-alpha for Donor 1 is shown in Table 88, Donor 2 is shown in Table 89 and Donor 3 is shown in Table 90.

HEK293 cells = assay: Example 46B: percent modification, HEK293 G-CSF ELISA (Table 75); assay type: cell-based, Human
mice [5] = assay: Example 40: multi-site IM/SC G-CSF mRNA in mice, neutrophil count (Table 65); assay type: in vivo; details: intramuscular, day 3
Protocol: Injection of four doses or 2×50 ug (two sites) daily for three days (24 hrs interval) was performed. The fourth dose was administered 6 hrs before blood collection and CBC analysis. […] The mice were bled at 72 hours after the first mRNA injection (6 hours after the last mRNA dose) to determine the effect of mRNA-encoded human G-CSF on the neutrophil count. The dosing regimen is shown in Table 65 as are the resulting neutrophil counts (thousands/uL). In Table 65, an asterisks (*) indicate statistical significance at p<0.05.

BJ fibroblasts = details: for IFN-beta / IL-6: 250 ng transfected daily for 5 days
mice [6] = assay: Example 41: IV lipoplexed G-CSF mRNA in mice, neutrophil count (Table 66); assay type: in vivo; details: IV 10% lipoplex, 50 ug at days 0, 2, 4; day 5
Protocol: Neutrophils were measured at days 1, 5 and 8. Controls included non-specific mammalian RNA or the formulation buffer alone (F.Buffer). The mice were bled at days 1, 5 and 8 to determine the effect of mRNA-encoded human G-CSF to increase neutrophil count. The dosing regimen is shown in Table 66 as are the resulting neutrophil counts (thousands/uL; K/uL).

[7] = Example 61: storage stability of G-CSF mRNA, gel electrophoresis (Bio-Rad EXPERION); assay type: physicochemical
Protocol: Stability experiments were conducted to obtain a better understanding of storage conditions to retain the integrity of modified RNA. […] After the mRNA had been stored for 0 hours, 2 hours, 6 hours, 24 hours, 48 hours, 5 days and 14 days, the mRNA was analyzed by gel electrophoresis using a Bio-Rad EXPERION™ system. The modified, unmodified and lipoplexed G-CSF mRNA was also stored in RNASTABLE® (Biomatrica, Inc. San Diego, Calif.) at 40° C. or water at −80° C. or 40° C. for 35 days before being analyzed by gel electrophoresis.
mRNA samples stored at 4° C., 25° C. and 37° C. were stored in 1×TE buffer or the formulation buffer (150 mM sodium chloride, 2 mM calcium chloride, 2 mM phosphate, 0.5 mM EDTA at a pH of 6.5). The mRNA stored at 4° C. was stable to at least 60 days in both the TE and formulation buffer. At 25° C. the mRNA in formulation buffer was stable out to 14 days and the TE buffer was stable out to at least 6 days. Storage of mRNA in the formulation buffer at 37° C. was stable to 6 days compared to the TE buffer which was stable only until 4 days.

C57BL/6 = assay: Example 116: mouse EPO mRNA in mannitol multi-dose, serum EPO (Table 186); assay type: in vivo, mice; details: mouse EPO mRNA in 5% isotonic Mannitol, IM 2.5 mg/kg per dose
Protocol: Serum was collected from the mice at 24 hours post the second, fourth, sixth and eighth doses.

Luciferase: luciferase mRNA, SEQ ID NO: 14, Cap1, fully modified with 5-methylcytosine and pseudouridine
Total Flux (Balb-C mice [1]; 5 Hours): 9.94E+05 p/s
Total Flux (Balb-C mice [1]; 24 Hours): 7.44E+05 p/s
G-CSF Expression ([2]; PBMC donor D1, 960 ng mRNA): 14.5 pg/mL
G-CSF Expression ([2]; PBMC donor D2, 960 ng mRNA): 3.1 pg/mL
G-CSF Expression ([2]; PBMC donor D3, 960 ng mRNA): 10.0 pg/mL
Total Flux (photons/s) (Balb-C mice [3]; Group 1, no EP, 3 Hours): 2.57E+07 photons/s
Total Flux (photons/s) (Balb-C mice [3]; Group 1, no EP, 24 Hours): 3.81E+07 photons/s
Total Flux (photons/s) (Balb-C mice [3]; Group 1, no EP, 48 Hours): 1.24E+07 photons/s
Total Flux (photons/s) (Balb-C mice [3]; Group 1, no EP, 72 Hours): 5.69E+06 photons/s
Total Flux (photons/s) (Balb-C mice [3]; Group 1, no EP, 168 Hours): 1.48E+06 photons/s
Total Flux (photons/s) (Balb-C mice [3]; Group 1, no EP, 240 Hours): 6.50E+05 photons/s
Total Flux (photons/s) (Balb-C mice [3]; Group 1, no EP, 360 Hours): 1.86E+05 photons/s
Total Flux (photons/s) (Balb-C mice [3]; Group 1, no EP, 480 Hours): 6.65E+04 photons/s
Total Flux (photons/s) (Balb-C mice [3]; Group 2, with EP, 24 Hours): 8.27E+07 photons/s
Total Flux (photons/s) (Balb-C mice [3]; Group 2, with EP, 48 Hours): 7.06E+07 photons/s
Total Flux (photons/s) (Balb-C mice [3]; Group 2, with EP, 72 Hours): 6.50E+07 photons/s
Total Flux (photons/s) (Balb-C mice [3]; Group 2, with EP, 168 Hours): 1.81E+07 photons/s
Total Flux (photons/s) (Balb-C mice [3]; Group 2, with EP, 240 Hours): 1.44E+07 photons/s
Total Flux (photons/s) (Balb-C mice [3]; Group 2, with EP, 360 Hours): 3.98E+06 photons/s
Total Flux (photons/s) (Balb-C mice [3]; Group 2, with EP, 480 Hours): 1.47E+06 photons/s
Total Flux (photons/s) (Balb-C mice [3]; Group 2, with electroporation (EP), 3 Hours): 1.25E+07 photons/s

B1: G-CSF: modified mRNA encoding human G-CSF, SEQ ID NO: 4, Cap1, fully modified with 5-methylcytosine and pseudouridine; LNP-formulated in Examples 16-22 (nucleic acid)
chain: GGGAAAUAAGAGAGAAAAGAAGAGUAAGAAGAAAUAUAAGAGCCACCAUGGCCGGUCCCGCGACCCAAAGCCCCAUGAAACUUAUGGCCCUGCAGUUGCUGCUUUGGCACUCGGCCCUCUGGACAGUCCAAGAAGCGACUCCUCUCGGACCUGCCUCAUCGUUGCCGCAGUCAUUCCUUUUGAAGUGUCUGGAGCAGGUGCGAAAGAUUCAGGGCGAUGGAGCCGCACUCCAAGAGAAGCUCUGCGCGACAUACAAACUUUGCCAUCCCGAGGAGCUCGUACUGCUCGGGCACAGCUUGGGGAUUCCCUGGGCUCCUCUCUCGUCCUGUCCGUCGCAGGCUUUGCAGUUGGCAGGGUGCCUUUCCCAGCUCCACUCCGGUUUGUUCUUGUAUCAGGGACUGCUGCAAGCCCUUGAGGGAAUCUCGCCAGAAUUGGGCCCGACGCUGGACACGUUGCAGCUCGACGUGGCGGAUUUCGCAACAACCAUCUGGCAGCAGAUGGAGGAACUGGGGAUGGCACCCGCGCUGCAGCCCACGCAGGGGGCAAUGCCGGCCUUUGCGUCCGCGUUUCAGCGCAGGGCGGGUGGAGUCCUCGUAGCGAGCCACCUUCAAUCAUUUUUGGAAGUCUCGUACCGGGUGCUGAGACAUCUUGCGCAGCCGUGAAGCGCUGCCUUCUGCGGGGCUUGCCUUCUGGCCAUGCCCUUCUUCUCUCCCUUGCACCUGUACCUCUUGGUCUUUGAAUAAAGCCUGAGUAGGAAG
modifications: Cap1, 5-methylcytosine, pseudouridine
protein translation and cytokine production [4]: most protein translation (G-CSF) and the least amount of cytokine
half-life of mRNA (HEK293 cells): 8 to 10 h
increase in neutrophil count above control (mice [5]): four fold increase
time to cytokine response (IFN-beta, IL-6) (BJ fibroblasts): 2 to 3 days
IFN-beta (BJ fibroblasts; 6 hours): 0 pg/mL
IL-6 (BJ fibroblasts; 6 hours): 3396 pg/mL
IFN-beta (BJ fibroblasts; Day 1): 38 pg/mL
IL-6 (BJ fibroblasts; Day 1): 3870 pg/mL
IFN-beta (BJ fibroblasts; Day 2): 1125 pg/mL
IL-6 (BJ fibroblasts; Day 2): 16341 pg/mL
IFN-beta (BJ fibroblasts; Day 3): 100 pg/mL
IL-6 (BJ fibroblasts; Day 3): 25983 pg/mL
IFN-beta (BJ fibroblasts; Day 4): 75 pg/mL
IL-6 (BJ fibroblasts; Day 4): 18922 pg/mL
IFN-beta (BJ fibroblasts; Day 5): 213 pg/mL
IL-6 (BJ fibroblasts; Day 5): 15928 pg/mL
increase in neutrophil count above control (mice [6]): four to five fold increase
freeze/thaw cycles tolerated [7]: 12 cycles
stable out to ([7]; stored at 25° C., with or without lipoplex): 120 h
stable out to ([7]; stored at 37° C.): 24 h
stable out to ([7]; stored at 50° C.): 6 h

B2: EPO: modified mRNA encoding human erythropoietin, SEQ ID NO: 7, Cap1, fully modified with 5-methylcytosine and pseudouridine; LNP NPA-060-1 in Examples 17-22 (nucleic acid)
chain: GGGAAAUAAGAGAGAAAAGAAGAGUAAGAAGAAAUAUAAGAGCCACCAUGGGAGUGCACGAGUGUCCCGCGUGGUUGUGGUUGCUGCUGUCGCUCUUGAGCCUCCCACUGGGACUGCCUGUGCUGGGGGCACCACCCAGAUUGAUCUGCGACUCACGGGUACUUGAGAGGUACCUUCUUGAAGCCAAAGAAGCCGAAAACAUCACAACCGGAUGCGCCGAGCACUGCUCCCUCAAUGAGAACAUUACUGUACCGGAUACAAAGGUCAAUUUCUAUGCAUGGAAGAGAAUGGAAGUAGGACAGCAGGCCGUCGAAGUGUGGCAGGGGCUCGCGCUUUUGUCGGAGGCGGUGUUGCGGGGUCAGGCCCUCCUCGUCAACUCAUCACAGCCGUGGGAGCCCCUCCAACUUCAUGUCGAUAAAGCGGUGUCGGGGCUCCGCAGCUUGACGACGUUGCUUCGGGCUCUGGGCGCACAAAAGGAGGCUAUUUCGCCGCCUGACGCGGCCUCCGCGGCACCCCUCCGAACGAUCACCGCGGACACGUUUAGGAAGCUUUUUAGAGUGUACAGCAAUUUCCUCCGCGGAAAGCUGAAAUUGUAUACUGGUGAAGCGUGUAGGACAGGGGAUCGCUGAUAAGCUGCCUUCUGCGGGGCUUGCCUUCUGGCCAUGCCCUUCUUCUCUCCCUUGCACCUGUACCUCUUGGUCUUUGAAUAAAGCCUGAGUAGGAAG
modifications: Cap1, 5-methylcytosine, pseudouridine
Eighth Dose EPO (C57BL/6; serum 24 hours post eighth dose): 239.3 pg/mL
Fourth Dose EPO (C57BL/6; serum 24 hours post fourth dose): 483.4 pg/mL
Second Dose EPO (C57BL/6; serum 24 hours post second dose): 334.7 pg/mL
Sixth Dose EPO (C57BL/6; serum 24 hours post sixth dose): 328.9 pg/mL
